Assay [1] has as its target T1, Bdf1 bromodomain 1 (GST-tagged, WT) (Saccharomyces cerevisiae (strain ATCC …, UniProt P35817)).
T1 chain: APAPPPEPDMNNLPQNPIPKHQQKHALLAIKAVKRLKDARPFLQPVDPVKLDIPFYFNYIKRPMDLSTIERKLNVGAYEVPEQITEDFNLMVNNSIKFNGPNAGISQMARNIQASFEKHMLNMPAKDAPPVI
In words: histone peptide array probed with recombinant GST-bromodomain, signal normalised to myc peptide control.

Assay [2] deals with T2, Bdf1 bromodomain 2 (GST-tagged, WT) (Saccharomyces cerevisiae (strain ATCC …, UniProt P35817)).
T2 chain: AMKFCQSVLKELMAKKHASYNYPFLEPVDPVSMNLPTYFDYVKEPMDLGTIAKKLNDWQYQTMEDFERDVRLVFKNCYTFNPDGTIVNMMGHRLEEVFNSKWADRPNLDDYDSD
Described as above.

Non-standard residues stand in square brackets, D forms with d. No end group written: not given here. Arg(Me2a) = CN(C)C(=N)NCCC[C@H](N)C(=O)O; Lys(Me3) = C[N+](C)(C)CCCC[C@H](N)C(=O)O; Arg(Me2s) = CN=C(NC)NCCC[C@H](N)C(=O)O; pT = C[C@@H](OP(=O)(O)O)[C@H](N)C(=O)O; Me2a = asymmetric dimethyl (on Arg); Lys(Me2) = CN(C)CCCC[C@H](N)C(=O)O; Me2s = symmetric dimethyl (on Arg); pS = N[C@@H](COP(=O)(O)O)C(=O)O; Lys(Me) = CNCCCC[C@H](N)C(=O)O; Me3 = trimethyl (on Lys)

B1: H3 1-19 (peptide)
chain: ARTKQTARKSTGGKAPRKQ
modifications: A Rme2s T Kme3 Q T A Rme2s Kme2 S T G G K A P R K Q
Regarding B1, the binding score in assay [1] came out at 0.000538; in assay [2], 0.

B2: H2a 1-19 (peptide)
chain: SGRGK(Ac)QGGK(Ac)ARAK(Ac)AKSRSS
In the case of B2, the binding score in assay [1] was found to be 0.144; in assay [2] it was 0.394.

B3: H3 1-19 (peptide)
chain: ART[Lys(Me)]QTA[Arg(Me2s)][Lys(Me)]STGGKAPRKQ
B3: the binding score in assay [1] worked out at 0.0199; in assay [2] it was 0.

B4: H3 1-19 (peptide)
chain: ARTKQTARKSTGGKAPRKQ
modifications: A Rme2a T Kac Q T A Rme2a Kme3 S T G G K A P R K Q
For B4, the binding score in assay [1] came out at 0.0133; in assay [2], 0.00659.

B5: H4 1-19 (peptide)
chain: SGRGKGGKGLGKGGAKRHR
modifications: S G R G K G G Kac G L G Kac G G A Kac R H R
As to B5, the binding score in assay [1] was determined as 0.484; in assay [2], 0.448.

B6: H3 16-35 (peptide)
chain: PRKQLATKAA[Arg(Me2a)][Lys(Me)][pS]APATGG
As for B6, the binding score in assay [1] and in assay [2] was 0 in each case.

B7: H3 1-19 (peptide)
chain: ARTKQTARKSTGGKAPRKQ
modifications: A Rme2a pT Kme3 Q T A R K S T G G K A P R K Q
Take B7: the binding score in assay [1] is 0.00789; in assay [2], 0.000885.

B8: H3 26-45 (peptide)
chain: RKSAPATGGVKKPHRYRPG
modifications: R K S A P A T G G V Kme3 K P H R Y R P G
In the case of B8, the binding score in assay [1] and in assay [2] was 0 in each case.

B9: H3 26-45 (peptide)
chain: RKSAPATGGVKKPHRYRPG
modifications: R K S A P A T G G V Kac K P H R Y R P G
Regarding B9, the binding score in assay [1] was found to be 0.0463; in assay [2] it was 0.0292.

B10: H3 1-19 (peptide)
chain: ARTKQTARKSTGGKAPRKQ
modifications: A Rme2s T Kme3 Q T A R K S T G G K A P R K Q
Take B10: the binding score in assay [1] and in assay [2] was 0 throughout.

B11: H3 1-19 (peptide)
chain: ARTKQTARKSTGGKAPRKQ
modifications: A Rme2a T Kme3 Q T A Rme2a Kac S T G G K A P R K Q
In the case of B11, the binding score in assay [1] came out at 0.0145; in assay [2], 0.

B12: H3 1-19 (peptide)
chain: ARTKQTARKSTGGKAPRKQ
modifications: A R T K Q T A R Kme1 S T G G K A P R K Q
For B12, the figures for the binding score in assay [1] and in assay [2] were 0 and 0.00482, respectively.

B13: H3 16-35 (peptide)
chain: PRKQLATKAAR[Lys(Me2)]SAPATGG
In the case of B13, the values for the binding score in assay [1] and in assay [2] were 0.01 and 0, respectively.

B14: H4 1-19 (peptide)
chain: SGRGKGGKGLGKGGAKRHR
modifications: S G R G Kac G G K G L G K G G A K R H R
Regarding B14, the figures for the binding score in assay [1] and in assay [2] were 0.00681 and 0.0404, respectively.

B15: H3 1-19 (peptide)
chain: A[Arg(Me2a)]T[Lys(Me3)]QTA[Arg(Me2a)][Lys(Me3)]STGGKAPRKQ
Take B15: the values for the binding score in assay [1] and in assay [2] were 0 and 0.00384, respectively.

B16: H3 1-19 (peptide)
chain: ARTKQTA[Arg(Me2a)][Lys(Me3)][pS][pT]GGKAPRKQ
Regarding B16, the binding score was found to be 0.00251 in assay [1] and 0 in assay [2].

B17: H3 16-35 (peptide)
chain: PRKQLATKAA[Arg(Me2a)][Lys(Me)]SAPATGG
Take B17: the binding score in assay [1] amounted to 0.00341; in assay [2] it was 0.

B18: H3 16-35 (peptide)
chain: PRKQLATKAA[Arg(Me2s)][Lys(Me)][pS]APATGG
As for B18, the binding score in assay [1] and in assay [2] was 0 in each case.

B19: H3 1-19 (peptide)
chain: ARTKQTARKSTGGKAPRKQ
modifications: A Rme2a T Kac Q T A Rme2a K S T G G K A P R K Q
On to B19, for which the values for the binding score in assay [1] and in assay [2] were 0.00932 and 0.00718, respectively.

B20: H3 1-19 (peptide)
chain: ARTKQTARKSTGGKAPRKQ
modifications: A Rme2a T Kme1 Q T A Rme2s Kac S T G G K A P R K Q
B20: the binding score is 0.00717 in assay [1] and 0.0204 in assay [2].

B21: H3 1-19 (peptide)
chain: ARTKQTARKSTGGKAPRKQ
modifications: A Rme2s T Kme2 Q T A R K S T G G K A P R K Q
Regarding B21, the binding score in assay [1] and in assay [2] was 0 throughout.

B22: H3 1-19 (peptide)
chain: ARTKQTARKSTGGKAPRKQ
modifications: A Rme2s T Kme2 Q T A Rme2s Kac S T G G K A P R K Q
With B22, the binding score in assay [1] came out at 0.0179; in assay [2], 0.0314.

B23: H3 1-19 (peptide)
chain: ARTKQTARKSTGGKAPRKQ
modifications: A Rme2s T Kme1 Q T A Rme2s Kac S T G G K A P R K Q
On to B23, for which the binding score was 0.0109 in assay [1] and 0.0269 in assay [2].

B24: H4 1-19 (peptide)
chain: SGRGKGGKGLGKGGAKRHR
modifications: pS G Rme2s G K G G K G L G K G G A K R H R
With B24, the binding score in assay [1] and in assay [2] was 0 each time.

B25: H3 1-19 (peptide)
chain: AR[pT][Lys(Me3)]QTARKSTGGKAPRKQ
Regarding B25, the figures for the binding score in assay [1] and in assay [2] were 0.00305 and 0.006, respectively.

B26: H3 1-19 (peptide)
chain: ART[Lys(Me3)]QTA[Arg(Me2a)][Lys(Me)]STGGKAPRKQ
For the molecule B26, the binding score in assay [1] stood at 0; in assay [2], 0.00148.

B27: H3 1-19 (peptide)
chain: ARTKQTARKSTGGKAPRKQ
modifications: A Rme2a T Kme2 Q T A Rme2a K S T G G K A P R K Q
Take B27: the binding score was found to be 0.00323 in assay [1] and 0.00698 in assay [2].

B28: H3 1-19 (peptide)
chain: ARTKQTARKSTGGKAPRKQ
modifications: A Rme2a T Kme2 Q T A Rme2s Kme2 S T G G K A P R K Q
Regarding B28, the binding score in assay [1] and in assay [2] was 0 throughout.

B29: H4 1-19 (peptide)
chain: SGRGKGGKGLGKGGAKRHR
modifications: S G R G Kac G G Kac G L G K G G A K R H R
As for B29, the results for the binding score in assay [1] and in assay [2] were 0.146 and 0.33, respectively.

B30: H3 16-35 (peptide)
chain: PRKQLATKAA[Arg(Me2a)][Lys(Me2)][pS]APATGG
B30: the binding score in assay [1] and in assay [2] was 0 throughout.

B31: H3 1-19 (peptide)
chain: A[Arg(Me2s)]TK(Ac)QTARK(Me)STGGKAPRKQ
For B31, the figures for the binding score in assay [1] and in assay [2] were 0.00341 and 0.00305, respectively.

B32: H3 1-19 (peptide)
chain: ARTKQTARKSTGGKAPRKQ
modifications: A R T K Q T A R K S pT G G K A P R K Q
As to B32, the binding score in assay [1] and in assay [2] was 0 throughout.

B33: background 01 (peptide)
chain: KKKKKRRRRRXKKKKRK
modifications: K Kme1 Kme2 Kme3 Kac R Rme2s R Rme2a R Cit K Kme1 Kac Kme3 R K
In the case of B33, the binding score in assay [1] and in assay [2] was 0 each time.

B34: H3 1-19 (peptide)
chain: ARTKQTARKSTGGKAPRKQ
modifications: A R T K Q T A Rme2a Kme2 pS T G G K A P R K Q
For the molecule B34, the binding score worked out at 0.00215 in assay [1] and 0.0062 in assay [2].

B35: H3 16-35 (peptide)
chain: PRKQLATKAA[Arg(Me2s)][Lys(Me3)][pS]APATGG
Take B35: the binding score is 0.00753 in assay [1] and 0 in assay [2].

B36: H4 1-19 (peptide)
chain: SGRGKGGKGLGKGGAKRHR
modifications: S G Rme2a G Kac G G Kac G L G K G G A K R H R
Regarding B36, the binding score in assay [1] came out at 0.0418; in assay [2] it was 0.137.

B37: H3 1-19 (peptide)
chain: A[Arg(Me2s)]TK(Ac)QTA[Arg(Me2a)][Lys(Me2)]STGGKAPRKQ
In the case of B37, the binding score in assay [1] is 0.00197; in assay [2] it was 0.00698.

B38: H3 1-19 (peptide)
chain: ARTKQTARKSTGGKAPRKQ
modifications: A Rme2s T Kme3 Q T A R Kme3 S T G G K A P R K Q
For the molecule B38, the binding score in assay [1] was found to be 0.0117; in assay [2] it was 0.

B39: H3 1-19 (peptide)
chain: ARTK(Me3)QTAR(Me2s)K(Me)STGGKAPRKQ
As to B39, the binding score in assay [1] and in assay [2] was 0 throughout.

B40: H3 1-19 (peptide)
chain: ARTKQTARKSTGGKAPRKQ
modifications: A Rme2s T Kac Q T A Rme2s Kme2 S T G G K A P R K Q
For B40, the binding score in assay [1] and in assay [2] was 0 throughout.

B41: H3 1-19 (peptide)
chain: ARTKQTARKSTGGKAPRKQ
modifications: A Rme2a T Kme2 Q T A Rme2s Kac S T G G K A P R K Q
As for B41, the binding score in assay [1] turned out to be 0.0213; in assay [2] it was 0.0274.

B42: H3 1-19 (peptide)
chain: AR(Me2a)TK(Me)QTAR(Me2s)K(Me)STGGKAPRKQ
In the case of B42, the binding score in assay [1] is 0.0102; in assay [2] it was 0.00187.

B43: H3 1-19 (peptide)
chain: ARTKQTARKSTGGKAPRKQ
modifications: not fully specified
Take B43: the binding score in assay [1] came to 0.00592; in assay [2], 0.00718.

B44: H2B 1-19 (peptide)
chain: PDPAK(Ac)SAPAPKK(Ac)G[pS]K(Ac)KAVT
With B44, the results for the binding score in assay [1] and in assay [2] were 0 and 0.181, respectively.

Values taken from article PMC5261807 (2017).
